From paper PMC6073767

Key:
[1] = confocal linescan, surface colocalisation, HEK293T co-expression; conditions: glycan lost; control: Panx2-FLAG
[2] = cell-surface biotinylation, NRK; conditions: glycan lost; control: wild-type Panx2
[3] = cell-surface biotinylation, AD293; conditions: glycan lost; control: wild-type Panx2
[4] = cell-surface biotinylation, HEK293T; conditions: glycan lost; control: wild-type Panx2

| Protein | localisation_or_trafficking [1] | localisation_or_trafficking [2] | localisation_or_trafficking [3] | localisation_or_trafficking, other: surface fraction of total protein [4] |
| --- | --- | --- | --- | --- |
| Panx2: N86Q-FLAG (protein) parent chain: MHHLLEQSADMATALLAGEKLRELILPGSQDDKAGALAALLLQLKLELPFDRVVTIGTVLVPILLVTLVFTKNFAEEPIYCYTPHNFTRDQALYARGYCWTELRDALPGVDASLWPSLFEHKFLPYALLAFAAIMYVPALGWEFLASTRLTSELNFLLQEIDNCYHRAAEGRAPKIEKQIQSKGPGITEREKREIIENAEKEKSPEQNLFEKYLERRGRSNFLAKLYLARHVLILLLSVVPISYLCTYYATQKQNEFTCALGASPDGPVGSAGPTVRVSCKLPSVQLQRIIAGVDIVLLCFMNLIILVNLIHLFIFRKSNFIFDKLNKVGIKTRRQWRRSQFCDINILAMFCNENRDHIKSLNRLDFITNESDLMYDNVVRQLLAALAQSNHDTTPTVRDSGIQTVDPSINPAEPDGSAEPPVVKRPRKKMKWIPTSNPLPQPFKEQLAIMRVENSKTEKPKPVRRKTATDTLIAPLLDAGARAAHHYKGSGGDSGPSSAPPAASEKKHTRHFSLDVHPYILGTKKAKTEAVPPALPASRSQEGGFLSQTEECGLGLAAAPTKDAPLPEKEIPYPTEPALPGLPSGGSFHVCSPPAAPAAASLSPGSLGKADPLTILSRNATHPLLHISTLYEAREEEEGGPCAPSDMGDLLSIPPPQQILIATFEEPRTVVSTVEF | decreases |  |  |  |
| Panx2: N86Q (protein) parent chain: MHHLLEQSADMATALLAGEKLRELILPGSQDDKAGALAALLLQLKLELPFDRVVTIGTVLVPILLVTLVFTKNFAEEPIYCYTPHNFTRDQALYARGYCWTELRDALPGVDASLWPSLFEHKFLPYALLAFAAIMYVPALGWEFLASTRLTSELNFLLQEIDNCYHRAAEGRAPKIEKQIQSKGPGITEREKREIIENAEKEKSPEQNLFEKYLERRGRSNFLAKLYLARHVLILLLSVVPISYLCTYYATQKQNEFTCALGASPDGPVGSAGPTVRVSCKLPSVQLQRIIAGVDIVLLCFMNLIILVNLIHLFIFRKSNFIFDKLNKVGIKTRRQWRRSQFCDINILAMFCNENRDHIKSLNRLDFITNESDLMYDNVVRQLLAALAQSNHDTTPTVRDSGIQTVDPSINPAEPDGSAEPPVVKRPRKKMKWIPTSNPLPQPFKEQLAIMRVENSKTEKPKPVRRKTATDTLIAPLLDAGARAAHHYKGSGGDSGPSSAPPAASEKKHTRHFSLDVHPYILGTKKAKTEAVPPALPASRSQEGGFLSQTEECGLGLAAAPTKDAPLPEKEIPYPTEPALPGLPSGGSFHVCSPPAAPAAASLSPGSLGKADPLTILSRNATHPLLHISTLYEAREEEEGGPCAPSDMGDLLSIPPPQQILIATFEEPRTVVSTVEF |  | decreases | decreases | decreases, ~1 vs approximately 4 |
